The target of the assay is T1, Human TROP2 Protein, His Tag (Acro Biosystems) (human, UniProt P09758 27-274).
T1 construct: not shown: His tag
T1 sequence (looked up): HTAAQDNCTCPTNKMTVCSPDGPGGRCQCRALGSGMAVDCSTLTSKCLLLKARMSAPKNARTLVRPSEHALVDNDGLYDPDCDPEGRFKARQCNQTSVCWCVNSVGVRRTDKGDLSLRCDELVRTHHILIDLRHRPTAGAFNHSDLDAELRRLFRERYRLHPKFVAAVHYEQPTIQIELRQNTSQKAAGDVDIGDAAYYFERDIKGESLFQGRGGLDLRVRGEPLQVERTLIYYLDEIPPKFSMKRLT
In words: BLI (Octet).

B1: MYT12298 (antibody, V domains shown)
VH: QVQLQQSGSELKKPGASVKVSCKASGYTFTNHGMNWVKQAPGQGLKWMGWINTYTGEPTYTDDHKGRFAFSLDTSVSTAYLQISSLKADDTAVYFCARGGFGSSYWYFDVWGQGSLVTVSS
VL: DIQLTQSPSSLSASVGDRVSITCKASQDVSIAVAWYQQKPGKAPKLLIYSASYRYTGVPDRFSGSGSGTDFTLTISSLQPEDFAVYYCQQHYITPLTFGAGTKVEIK
notes: sacituzumab VH 32, 64 -> H
For B1, the binding result was “binds”.

B2: MYT12319 (antibody, V domains shown)
VH: QVQLQQSGSELKKPGASVKVSCKASGYTFTNYGMNWVKQAPGQGLKWMGWINTYTGEPTYTDDHHGRFAFSLDTSVSTAYLQISSLKADDTAVYFCARGGFGSSYWYFDVWGQGSLVTVSS
VL: DIQLTQSPSSLSASVGDRVSITCKASQDVSIAVAWYQQKPGKAPKLLIYSASYRYTGVPDRFSGSGSGTDFTLTISSLQPEDFAVYYCQQHYITPLTFGAGTKVEIK
notes: sacituzumab VH 64, 65 -> H
On to B2, for which the binding result was “binds”.

B3: MYT12358 (antibody, V domains shown)
VH: QVQLQQSGSELKKPGASVKVSCKASGYTFTNYGMNWVKQAPGQGLKWMGWINTYTGEPTYTDDFKGRFAFSLDTSVSTAYLQISSLKADDTAVYFCARGGFGSSYWYFDVWGQGSLVTVSS
VL: DIQLTQSPSSLSASVGDRVSITCKASQDVSIAVAWYQQKPGKAPKLLIYSASHRYTGVPDRFSGSGSGTDFTLTISSLQPEDFAVYYCHQHYITPLTFGAGTKVEIK
notes: sacituzumab VL 53, 89 -> H
For the molecule B3, the binding result is given as “binds”.

B4: MYT12320 (antibody, V domains shown)
VH: QVQLQQSGSELKKPGASVKVSCKASGYTFTNYGMNWVKQAPGQGLKWMGWINTYTGEPTYTDDHKHRFAFSLDTSVSTAYLQISSLKADDTAVYFCARGGFGSSYWYFDVWGQGSLVTVSS
VL: DIQLTQSPSSLSASVGDRVSITCKASQDVSIAVAWYQQKPGKAPKLLIYSASYRYTGVPDRFSGSGSGTDFTLTISSLQPEDFAVYYCQQHYITPLTFGAGTKVEIK
notes: sacituzumab VH 64, 66 -> H
With B4, the binding result is reported as “binds”.

B5: MYT12348 (antibody, V domains shown)
VH: QVQLQQSGSELKKPGASVKVSCKASGYTFTNYGMNWVKQAPGQGLKWMGWINTYTGEPTYTDDFKGRFAFSLDTSVSTAYLQISSLKADDTAVYFCARGGFGSSYWYFDVWGQGSLVTVSS
VL: DIQLTQSPSSLSASVGDRVSITCKASQDVSIAVAWYQQKPGKAPKLLIYSHSHRYTGVPDRFSGSGSGTDFTLTISSLQPEDFAVYYCQQHYITPLTFGAGTKVEIK
notes: sacituzumab VL 51, 53 -> H
In the case of B5, the binding result is “binds”.

B6: MYT12343 (antibody, V domains shown)
VH: QVQLQQSGSELKKPGASVKVSCKASGYTFTNYGMNWVKQAPGQGLKWMGWINTYTGEPTYTDDFKGRFAFSLDTSVSTAYLQISSLKADDTAVYFCARGGFGSSYWYFDVWGQGSLVTVSS
VL: DIQLTQSPSSLSASVGDRVSITCKASQDVSIAHAWYQQKPGKAPKLLIYSASYRYTGVPDRFSGSGSGTDFTLTISSLQPEDFAVYYCHQHYITPLTFGAGTKVEIK
notes: sacituzumab VL 33, 89 -> H
B6: the binding result is recorded as “binds”.

B7: MYT12347 (antibody, V domains shown)
VH: QVQLQQSGSELKKPGASVKVSCKASGYTFTNYGMNWVKQAPGQGLKWMGWINTYTGEPTYTDDFKGRFAFSLDTSVSTAYLQISSLKADDTAVYFCARGGFGSSYWYFDVWGQGSLVTVSS
VL: DIQLTQSPSSLSASVGDRVSITCKASQDVSIAVAWYQQKPGKAPKLLIYSHHYRYTGVPDRFSGSGSGTDFTLTISSLQPEDFAVYYCQQHYITPLTFGAGTKVEIK
notes: sacituzumab VL 51, 52 -> H
In the case of B7, the binding result is recorded as “binds”.

B8: MYT12349 (antibody, V domains shown)
VH: QVQLQQSGSELKKPGASVKVSCKASGYTFTNYGMNWVKQAPGQGLKWMGWINTYTGEPTYTDDFKGRFAFSLDTSVSTAYLQISSLKADDTAVYFCARGGFGSSYWYFDVWGQGSLVTVSS
VL: DIQLTQSPSSLSASVGDRVSITCKASQDVSIAVAWYQQKPGKAPKLLIYSHSYRYTGVPDRFSGSGSGTDFTLTISSLQPEDFAVYYCHQHYITPLTFGAGTKVEIK
notes: sacituzumab VL 51, 89 -> H
Consider B8, for which the binding result is listed as “binds”.

B9: MYT12342 (antibody, V domains shown)
VH: QVQLQQSGSELKKPGASVKVSCKASGYTFTNYGMNWVKQAPGQGLKWMGWINTYTGEPTYTDDFKGRFAFSLDTSVSTAYLQISSLKADDTAVYFCARGGFGSSYWYFDVWGQGSLVTVSS
VL: DIQLTQSPSSLSASVGDRVSITCKASQDVSIAHAWYQQKPGKAPKLLIYSASHRYTGVPDRFSGSGSGTDFTLTISSLQPEDFAVYYCQQHYITPLTFGAGTKVEIK
notes: sacituzumab VL 33, 53 -> H
In the case of B9, the binding result is reported as “binds”.

B10: MYT12306 (antibody, V domains shown)
VH: QVQLQQSGSELKKPGASVKVSCKASGYTFTNYHMNWVKQAPGQGLKWMGWINTYTGEPTYTDDFKHRFAFSLDTSVSTAYLQISSLKADDTAVYFCARGGFGSSYWYFDVWGQGSLVTVSS
VL: DIQLTQSPSSLSASVGDRVSITCKASQDVSIAVAWYQQKPGKAPKLLIYSASYRYTGVPDRFSGSGSGTDFTLTISSLQPEDFAVYYCQQHYITPLTFGAGTKVEIK
notes: sacituzumab VH 33, 66 -> H
As for B10, the binding result was “binds”.

B11: MYT12310 (antibody, V domains shown)
VH: QVQLQQSGSELKKPGASVKVSCKASGYTFTNYGMNWVKQAPGQGLKWMGWINTYTGEPTHTDDFHGRFAFSLDTSVSTAYLQISSLKADDTAVYFCARGGFGSSYWYFDVWGQGSLVTVSS
VL: DIQLTQSPSSLSASVGDRVSITCKASQDVSIAVAWYQQKPGKAPKLLIYSASYRYTGVPDRFSGSGSGTDFTLTISSLQPEDFAVYYCQQHYITPLTFGAGTKVEIK
notes: sacituzumab VH 60, 65 -> H
In the case of B11, the binding result was “binds”.

B12: MYT12354 (antibody, V domains shown)
VH: QVQLQQSGSELKKPGASVKVSCKASGYTFTNYGMNWVKQAPGQGLKWMGWINTYTGEPTYTDDFKGRFAFSLDTSVSTAYLQISSLKADDTAVYFCARGGFGSSYWYFDVWGQGSLVTVSS
VL: DIQLTQSPSSLSASVGDRVSITCKASQDVSIAVAWYQQKPGKAPKLLIYSAHYRYTGVPDRFSGSGSGTDFTLTISSLQPEDFAVYYCHQHYITPLTFGAGTKVEIK
notes: sacituzumab VL 52, 89 -> H
With B12, the binding result is listed as “binds”.

B13: MYT12346 (antibody, V domains shown)
VH: QVQLQQSGSELKKPGASVKVSCKASGYTFTNYGMNWVKQAPGQGLKWMGWINTYTGEPTYTDDFKGRFAFSLDTSVSTAYLQISSLKADDTAVYFCARGGFGSSYWYFDVWGQGSLVTVSS
VL: DIQLTQSPSSLSASVGDRVSITCKASQDVSIAHAWYQQKPGKAPKLLIYSASYRYTGVPDRFSGSGSGTDFTLTISSLQPEDFAVYYCQQHYHTPLTFGAGTKVEIK
notes: sacituzumab VL 33, 93 -> H
In the case of B13, the binding result was “binds”.

B14: MYT12318 (antibody, V domains shown)
VH: QVQLQQSGSELKKPGASVKVSCKASGYTFTNYGMNWVKQAPGQGLKWMGWINTYTGEPTYTDHFKHRFAFSLDTSVSTAYLQISSLKADDTAVYFCARGGFGSSYWYFDVWGQGSLVTVSS
VL: DIQLTQSPSSLSASVGDRVSITCKASQDVSIAVAWYQQKPGKAPKLLIYSASYRYTGVPDRFSGSGSGTDFTLTISSLQPEDFAVYYCQQHYITPLTFGAGTKVEIK
notes: sacituzumab VH 63, 66 -> H
Regarding B14, the binding result is reported as “binds”.

B15: MYT12302 (antibody, V domains shown)
VH: QVQLQQSGSELKKPGASVKVSCKASGYTFTNYHMNWVKQAPGQGLKWMGWINTYTGEPTYTHDFKGRFAFSLDTSVSTAYLQISSLKADDTAVYFCARGGFGSSYWYFDVWGQGSLVTVSS
VL: DIQLTQSPSSLSASVGDRVSITCKASQDVSIAVAWYQQKPGKAPKLLIYSASYRYTGVPDRFSGSGSGTDFTLTISSLQPEDFAVYYCQQHYITPLTFGAGTKVEIK
notes: sacituzumab VH 33, 62 -> H
For B15, the binding result is “binds”.

(Values after patent US20260274985A1 (MYTHIC THERAPEUTICS, published 2026).)
